For the assay, the target named is bovine trypsin (bovine, UniProt P00760 24-246). Kind of assay: cell-based or functional assay.
bovine trypsin, sequence (P00760 24-246): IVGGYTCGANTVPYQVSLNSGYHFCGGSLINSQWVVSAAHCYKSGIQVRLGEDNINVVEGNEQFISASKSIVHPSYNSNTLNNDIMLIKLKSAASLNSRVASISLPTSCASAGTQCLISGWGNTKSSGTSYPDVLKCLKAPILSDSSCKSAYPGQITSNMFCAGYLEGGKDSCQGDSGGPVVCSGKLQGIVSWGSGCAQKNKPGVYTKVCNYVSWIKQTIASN

B1: Native chicken Ovomucoid (other)
chain: AEVDCSRFPNATDKEGKDVLVCNKDLRPICGTDGVTYTNDCLLCAYSIEFGTNISKEHDGECKETVPMNCSSYANTTSEDGKVMVLCNRAFNPVCGTDGVTYDNECLLCAHKVEQGASVDKRHDGGCRKELAAVSVDCSEYPKPDCTAEDRPLCGSDNKTYGNKCNFCNAVVESNGTLTLSHFGKC
modifications: complex branched N-linked glycosylation (includes mannose)
Consider B1, for which the Trypsin inhibition activity was found to be 13700 TIU/g.

The values are drawn from US20240349752A1 (CLARA FOODS, published 2024).
